Experiment: Emission intensity of fluorophores exposed to different excitation wavelengths
Format: physicochemical
Conditions: shift in excitation wavelength
From the text: FIGS. 10A and 10B present graphs of emission intensities for two separate fluorphores, mPlum and cy5, exposed to different excitation wavelengths. As shown in FIG. 10A the shift in excitation wavelength yielded a decrease in emission intensity of about 96% for fluorphore 1 which was mPlum.

increase in emission intensity	Compound	decrease in emission intensity (FIG. 10A)
–	mPlum	about 96%
about 156%	CCN1/C(=C/C=C/C=C/C2=[N+](CCCCCC(=O)O)c3ccc(S(=O)(=O)O)cc3C2(C)C)C(C)(C)c2cc(S(=O)(=O)[O-])ccc21 [cy5]	–

— patent US10813554B2, “Medical imaging device and methods of use” (Lumicell, Inc., priority 2013, dated 2020)
